Our source for the stoichiometry N values is publication PMC9093105.

The assay deals with Human sapovirus (HuSaV) GI.6 capsid protein VP1, Nichinan strain, self-assembled as a virus-like particle (VLP) (human sapovirus GI.6, Nichinan strain). Nature of the assay: cryo-EM structure; single-particle cryo-EM of purified VLPs in Express Five SFM, icosahedral symmetry imposed, 2.9 Å; de novo atomic model.

The term stoichiometry N denotes the number of molecules, sites or subunits per partner or assembly.

For “Human sapovirus (HuSaV) GI.6 capsid protein VP1, Nichinan strain, self-assembled as a virus-like particle (VLP) (natural protein)”, the stoichiometry N is 180 copies.
